Experiment [1] addresses BcsE^217-523 (purified, tag-free) (E. coli 1094) (UniProt P37657). As to the kind of experiment: ITC; apparent constants; Microcal VP-ITC, 20 C; tag-free BcsRQ (180 uM, syringe) titrated into BcsE^217-523 (18 uM, cuvette); 20 mM HEPES pH 8.0, 100 mM NaCl, 2 mM DTT; single-site binding model. A general note: In ITC the heat of successive injections is recorded.
Experiment [2] addresses tag-free BcsRQ complex (E. coli 1094) (UniProt P37655). As to the kind of experiment: SEC-MALS; purified tag-free BcsERQ^FL complex on Superose 6 Increase 10/300 GL, with Cymal-6 detergent. On the technique in general: Size exclusion chromatography separates by hydrodynamic size, large species first.
Experiment [3] deals with BcsQ (tag-free) (E. coli 1094) (UniProt P37655). Briefly: SEC-MALS; purified sample on Superdex 200 Increase 10/300 GL in its gel filtration buffer (20 mM HEPES pH 8.0, 120 mM NaCl, 2 mM DTT for BcsRQ), 0.5 ml/min.

Experimental findings from publication PMC7439463 are described below.

pKd: −log10 of the molar value.

A word on the pKd: it is −log10 of the Kd, conventionally taken in molar units. The term stoichiometry N denotes the number of molecules, sites or subunits per partner or assembly. With “tag-free BcsRQ complex (from UniProt P37655 1-242)”, in experiment [1], the pKd is 7.80 and the stoichiometry N is 0.95. “BcsE^FL (tag-free) (from UniProt P37657 1-523) (natural protein)”: the stoichiometry N (BcsE:BcsR:BcsQ, printed as 2:2:2) in experiment [2] came out at 1.

In experiment [3], “BcsR (His tag cleaved, in tag-free BcsRQ) (natural protein)” had a stoichiometry N (BcsR:BcsQ, printed as 2:2) of 1.
